Measurements as given in patent US20210261667A1.

How the values were obtained:
[1] = target: PD-L1 expressed on the cell surface (HEK293F transiently transfected; A375/PD-L1 stably transfected cells) (UniProt Q9NZQ7); assay: flow cytometry blocking assay on A375/PD-L1 cells; blocked ligand hPD-1(ECD)-Fc-Biotin, SA-PE detection, MFI [table, row 1]
[2] = target: PD-L1 expressed on the cell surface (HEK293F transiently transfected; A375/PD-L1 stably transfected cells) (UniProt Q9NZQ7); assay: flow cytometry blocking assay on A375/PD-L1 cells; blocked ligand hPD-1(ECD)-Fc-Biotin, SA-PE detection [column 0.5 ug/ml]
[3] = target: PD-L1 expressed on the cell surface (HEK293F transiently transfected; A375/PD-L1 stably transfected cells) (UniProt Q9NZQ7); assay: flow cytometry blocking assay on A375/PD-L1 cells; blocked ligand hPD-1(ECD)-Fc-Biotin, SA-PE detection [column 0.05 ug/ml]
[4] = target: PD-L1 expressed on the cell surface (HEK293F transiently transfected; A375/PD-L1 stably transfected cells) (UniProt Q9NZQ7); assay: flow cytometry blocking assay on A375/PD-L1 cells; blocked ligand hPD-1(ECD)-Fc-Biotin, SA-PE detection [column 0.005 ug/ml]
[5] = target: PD-L1 expressed on the cell surface (HEK293F transiently transfected; A375/PD-L1 stably transfected cells) (UniProt Q9NZQ7); assay: flow cytometry blocking assay on HEK293F cells transiently transfected with PD-L1; blocked ligand hPD-1 biotin, SA-PE detection
[6] = target: PD-L1 expressed on the cell surface (HEK293F transiently transfected; A375/PD-L1 stably transfected cells) (UniProt Q9NZQ7); assay: flow cytometry blocking assay on A375/PD-L1 cells; blocked ligand hPD-1(ECD)-Fc-Biotin, SA-PE detection; no concentration printed for this panel, which stands above the 0.5 ug/ml column

PD-L1 expressed on the cell surface (HEK293F transiently transfected; A375/PD-L1 stably transfected cells), sequence (Q9NZQ7 19-290 limits assumed): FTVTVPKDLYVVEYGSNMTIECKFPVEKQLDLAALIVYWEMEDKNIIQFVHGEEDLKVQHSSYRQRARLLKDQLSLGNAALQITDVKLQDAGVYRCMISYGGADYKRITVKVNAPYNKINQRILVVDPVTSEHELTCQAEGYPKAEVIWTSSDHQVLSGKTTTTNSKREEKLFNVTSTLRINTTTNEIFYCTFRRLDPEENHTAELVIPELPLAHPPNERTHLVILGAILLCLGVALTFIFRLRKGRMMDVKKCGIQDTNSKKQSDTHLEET

Row | IC50 [1] [µg/mL] | Q2 % (cells still positive for hPD-1(ECD)-Fc-Biotin) at 0.5 ug/ml antibody [2] [%] | Q2 % (cells still positive for hPD-1(ECD)-Fc-Biotin) at 0.05 ug/ml antibody [3] [%] | Q2 % (cells still positive for hPD-1(ECD)-Fc-Biotin) at 0.005 ug/ml antibody [4] [%] | Q2 % (cells still positive for PD-1-biotin with the antibody present) [5] [%] | Q2 % (cells still positive for hPD-1(ECD)-Fc-Biotin with the antibody present) [6] [%] | Substance
1 | 0.456 | 11.8 | 85.3 | 86 |  |  | Tecentriq (antibody)
2 |  |  |  |  | 86.2 | 85.9 | negative control antibody
